Measured values as given in PMC11514458.

Columns and labels:
BCDX2 complex [1] = target: T1, BCDX2 complex (human, UniProt O15315;O43502;O75771;O43543 1-384;1-376;1-328;1-280); test: EMSA; stronger than miniBRCA2; EMSA: 20 mM Tris-HCl pH 7.5, 2 mM MgCl2, 2 mM ATP, 37 C, 20 nM DNA, glutaraldehyde fixation; stopped-flow: 25 mM Tris-HCl pH 7.5, 5 mM MgCl2, 50 mM KCl, 2 mM ATP, 0.5 mM EDTA, 10% glycerol, 37 C; BLI: 50 mM Tris-HCl pH 7.5, 2 mM ATP, 50 mM KCl, 5 mM MgCl2, 0.05% Tween 20, room temperature; conditions: protein: recombinant; tags: Strep-tag and His-tag (XRCC2 N-terminal His); copies: 1;1;1;1; label: 5' FITC
T1 sequence 1: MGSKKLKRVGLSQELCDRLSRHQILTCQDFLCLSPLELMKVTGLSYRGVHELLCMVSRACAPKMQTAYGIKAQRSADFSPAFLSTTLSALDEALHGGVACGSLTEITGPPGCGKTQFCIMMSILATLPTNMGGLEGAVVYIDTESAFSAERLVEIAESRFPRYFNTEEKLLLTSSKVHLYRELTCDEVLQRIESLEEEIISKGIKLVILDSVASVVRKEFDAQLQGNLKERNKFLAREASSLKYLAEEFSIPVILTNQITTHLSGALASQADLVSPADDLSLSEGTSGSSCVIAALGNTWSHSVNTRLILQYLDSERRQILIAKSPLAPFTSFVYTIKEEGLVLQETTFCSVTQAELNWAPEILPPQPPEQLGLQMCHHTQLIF
T1 sequence 2: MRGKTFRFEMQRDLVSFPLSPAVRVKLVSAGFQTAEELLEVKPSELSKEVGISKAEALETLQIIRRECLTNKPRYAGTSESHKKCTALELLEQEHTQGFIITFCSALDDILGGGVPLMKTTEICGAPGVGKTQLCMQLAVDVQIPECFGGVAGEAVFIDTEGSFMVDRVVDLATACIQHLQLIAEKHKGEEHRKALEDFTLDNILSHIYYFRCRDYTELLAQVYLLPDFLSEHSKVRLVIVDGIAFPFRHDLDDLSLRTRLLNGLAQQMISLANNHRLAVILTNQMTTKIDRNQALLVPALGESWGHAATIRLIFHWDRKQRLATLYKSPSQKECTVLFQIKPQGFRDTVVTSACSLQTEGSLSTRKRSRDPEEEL
T1 sequence 3: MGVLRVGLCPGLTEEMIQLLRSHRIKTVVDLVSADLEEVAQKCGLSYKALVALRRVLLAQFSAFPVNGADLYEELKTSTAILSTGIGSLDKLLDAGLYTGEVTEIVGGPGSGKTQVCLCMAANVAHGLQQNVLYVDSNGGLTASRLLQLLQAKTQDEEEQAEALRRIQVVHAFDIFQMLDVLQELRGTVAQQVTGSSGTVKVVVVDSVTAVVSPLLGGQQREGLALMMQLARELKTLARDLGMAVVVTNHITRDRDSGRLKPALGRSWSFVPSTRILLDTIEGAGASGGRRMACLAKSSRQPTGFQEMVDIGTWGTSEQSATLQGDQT
T1 sequence 4: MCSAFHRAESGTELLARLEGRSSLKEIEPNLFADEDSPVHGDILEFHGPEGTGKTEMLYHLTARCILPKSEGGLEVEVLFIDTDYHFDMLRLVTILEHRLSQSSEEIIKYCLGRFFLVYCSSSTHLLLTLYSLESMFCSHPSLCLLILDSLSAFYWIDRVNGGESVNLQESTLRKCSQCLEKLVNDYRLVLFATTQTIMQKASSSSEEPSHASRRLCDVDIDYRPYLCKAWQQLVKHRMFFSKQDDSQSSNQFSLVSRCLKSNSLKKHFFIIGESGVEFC

DX2(R159A) = target: T2, DX2(R159A) (UniProt O75771;O43543 1-328;1-280, R159A); test: EMSA; not significantly affected; EMSA: 20 mM Tris-HCl pH 7.5, 2 mM MgCl2, 2 mM ATP, 37 C, 20 nM DNA, glutaraldehyde fixation; stopped-flow: 25 mM Tris-HCl pH 7.5, 5 mM MgCl2, 50 mM KCl, 2 mM ATP, 0.5 mM EDTA, 10% glycerol, 37 C; BLI: 50 mM Tris-HCl pH 7.5, 2 mM ATP, 50 mM KCl, 5 mM MgCl2, 0.05% Tween 20, room temperature; conditions: protein: recombinant; copies: 1;1; label: internal FITC; reversed fork of 4 strands with ssDNA overhang
T2 sequence 1: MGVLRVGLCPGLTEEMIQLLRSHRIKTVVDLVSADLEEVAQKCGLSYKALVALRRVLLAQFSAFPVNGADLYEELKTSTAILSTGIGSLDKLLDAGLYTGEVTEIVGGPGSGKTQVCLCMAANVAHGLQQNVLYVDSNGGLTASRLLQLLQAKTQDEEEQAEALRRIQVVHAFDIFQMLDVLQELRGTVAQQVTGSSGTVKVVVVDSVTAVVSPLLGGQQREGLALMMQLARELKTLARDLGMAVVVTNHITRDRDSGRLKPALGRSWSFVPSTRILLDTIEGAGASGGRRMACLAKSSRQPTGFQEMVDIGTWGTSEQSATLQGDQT
T2 sequence 2: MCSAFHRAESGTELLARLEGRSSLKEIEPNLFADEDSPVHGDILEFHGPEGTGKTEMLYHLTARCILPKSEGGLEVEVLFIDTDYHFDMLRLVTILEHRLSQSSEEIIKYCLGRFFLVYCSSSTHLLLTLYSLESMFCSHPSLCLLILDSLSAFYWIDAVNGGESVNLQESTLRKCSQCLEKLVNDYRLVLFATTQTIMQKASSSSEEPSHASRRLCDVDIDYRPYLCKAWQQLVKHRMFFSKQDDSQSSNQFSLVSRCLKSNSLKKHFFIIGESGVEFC

D(R266A)X2 = target: T3, D(R266A)X2 (UniProt O75771;O43543 1-328;1-280, R266A); test: as above; conditions: protein: recombinant; copies: 1;1; label: internal FITC; reversed fork of 4 strands with ssDNA overhang
T3 sequence 1: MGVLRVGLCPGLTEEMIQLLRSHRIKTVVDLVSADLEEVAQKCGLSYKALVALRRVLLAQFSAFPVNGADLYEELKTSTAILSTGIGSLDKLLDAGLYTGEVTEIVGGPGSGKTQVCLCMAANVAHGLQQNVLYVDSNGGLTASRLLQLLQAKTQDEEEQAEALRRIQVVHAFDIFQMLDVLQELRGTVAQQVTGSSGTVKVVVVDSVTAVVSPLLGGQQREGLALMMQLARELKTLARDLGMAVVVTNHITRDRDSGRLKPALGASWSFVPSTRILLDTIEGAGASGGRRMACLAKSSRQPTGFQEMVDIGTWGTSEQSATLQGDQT
T3 sequence 2: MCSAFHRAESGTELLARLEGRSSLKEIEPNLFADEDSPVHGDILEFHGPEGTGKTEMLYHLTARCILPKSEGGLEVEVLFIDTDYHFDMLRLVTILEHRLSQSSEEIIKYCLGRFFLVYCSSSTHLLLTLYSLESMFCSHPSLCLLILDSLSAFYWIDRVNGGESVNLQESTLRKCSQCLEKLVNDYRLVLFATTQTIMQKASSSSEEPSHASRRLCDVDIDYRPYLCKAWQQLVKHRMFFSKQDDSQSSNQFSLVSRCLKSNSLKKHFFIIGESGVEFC

BCDX2 complex [2] = target: T1, BCDX2 complex; test: EMSA; strong binding; EMSA: 20 mM Tris-HCl pH 7.5, 2 mM MgCl2, 2 mM ATP, 37 C, 20 nM DNA, glutaraldehyde fixation; stopped-flow: 25 mM Tris-HCl pH 7.5, 5 mM MgCl2, 50 mM KCl, 2 mM ATP, 0.5 mM EDTA, 10% glycerol, 37 C; BLI: 50 mM Tris-HCl pH 7.5, 2 mM ATP, 50 mM KCl, 5 mM MgCl2, 0.05% Tween 20, room temperature; conditions: protein: recombinant; tags: Strep-tag and His-tag (XRCC2 N-terminal His); copies: 1;1;1;1; label: internal FITC; reversed fork of 4 strands with ssDNA overhang
DX2 complex = target: T4, DX2 complex (human, UniProt O75771;O43543 1-328;1-280); test: as above; conditions: protein: recombinant; tags: His-tag; copies: 1;1; label: internal FITC; reversed fork of 4 strands with ssDNA overhang
T4 sequence 1: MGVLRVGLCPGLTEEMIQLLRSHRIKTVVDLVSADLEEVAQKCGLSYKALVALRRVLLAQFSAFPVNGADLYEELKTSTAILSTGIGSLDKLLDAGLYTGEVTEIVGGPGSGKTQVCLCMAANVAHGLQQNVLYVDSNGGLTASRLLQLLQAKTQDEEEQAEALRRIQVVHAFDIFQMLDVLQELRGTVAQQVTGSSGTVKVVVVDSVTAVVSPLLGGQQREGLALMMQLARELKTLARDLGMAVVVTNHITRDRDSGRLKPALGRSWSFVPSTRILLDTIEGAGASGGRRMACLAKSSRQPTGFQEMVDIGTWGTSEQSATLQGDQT
T4 sequence 2: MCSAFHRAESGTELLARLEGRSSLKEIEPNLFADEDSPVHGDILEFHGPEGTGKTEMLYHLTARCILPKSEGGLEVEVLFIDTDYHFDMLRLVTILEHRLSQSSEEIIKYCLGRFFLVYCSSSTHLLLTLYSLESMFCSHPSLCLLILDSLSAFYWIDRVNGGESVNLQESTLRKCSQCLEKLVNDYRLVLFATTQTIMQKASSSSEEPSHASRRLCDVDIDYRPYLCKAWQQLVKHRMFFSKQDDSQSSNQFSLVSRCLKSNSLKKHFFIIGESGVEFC

BCDX2 complex [3] = target: T1, BCDX2 complex; test: EMSA; significant binding; EMSA: 20 mM Tris-HCl pH 7.5, 2 mM MgCl2, 2 mM ATP, 37 C, 20 nM DNA, glutaraldehyde fixation; stopped-flow: 25 mM Tris-HCl pH 7.5, 5 mM MgCl2, 50 mM KCl, 2 mM ATP, 0.5 mM EDTA, 10% glycerol, 37 C; BLI: 50 mM Tris-HCl pH 7.5, 2 mM ATP, 50 mM KCl, 5 mM MgCl2, 0.05% Tween 20, room temperature; conditions: protein: recombinant; tags: Strep-tag and His-tag (XRCC2 N-terminal His); copies: 1;1;1;1; label: 5' FITC

B1: ssDNA 40mer (ssDNA)
DNA: CTAAGTTCGTCAGGATTCCAGCATTCTAACAGTCATAGCG
BCDX2 complex [1]
  binding result: binds

B2: RVF1 (mixed)
DNA 1: TGCCGAATTCTACCAGTGCCAGTGATGGACATCTTTGCCCACGTTGACCC
DNA 2: TGGGTCAACGTGGGCAAAGATGTCCTAGCAATGTAATCGTCTATGACGTT
DNA 3: TCGGATCCTCTAGACAGCTCCATGATCACTGGCACTGGTAGAATTCGGC
DNA 4: CAACGTCATAGACGATTACATTGCT
modifications: internal FITC at Z after nt 20 of strand 3
DX2(R159A)
  binding result: binds
D(R266A)X2
  binding result: binds
BCDX2 complex [2]
  binding result: binds
DX2 complex
  binding result: binds

B3: ssDNA 30mer (ssDNA)
DNA: GTACAAAGCTCTGGCATGATACTATGCGGC
BCDX2 complex [1]
  binding result: binds

B4: ssDNA 15mer (ssDNA)
DNA: AGAAGAGAGCAGAGG
BCDX2 complex [3]
  binding result: binds
